Measured values: the supplement of paper PMC10567573

B1: ZNF511 (parent)
chain: AAPFRFVARPVRFPREHQFFEDGD
B2: LRRC45 (parent)
chain: FQTRQEMTSMSAELKMRAIQAEER

Variants of: B1
Test: protein stability index of a GFP-peptide fusion (GPS, HEK-293T) (PSI 1-6); higher = more stable
Settings: c terminus: a fixed tail appended
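Note: lentivirally expressed fusions sorted by FACS into six bins by GFP to DsRed ratio, PSI derived from sequencing read proportions per bin multiplied by bin number.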

Protein stability index, by site and new letter:
G23: P 2.69, Y 2.35, C 1.67, H 2.18, I 1.51, L 2.56, M 1.91, S 2.49, V 1.9, Q 2.45, A 2.29, K 2.53, E 2.25, D 2.77, N 2.36, F 1.61, W 2.02, R 2.24, T 2.5
D24: Y 1.83, M 1.49, G 2.08, E 3.01, Q 2.06, T 1.72, F 1.83, K 2.97, P 2.1, L 2.04, S 2.01, C 2.29, R 2.04, W 2.32, H 1.66, N 2.88, V 2.73, I 1.53, A 2.23
F19: S 2.25, R 2.4, W 2.04, V 2.11, Y 2.57, T 2.81
E21: Q 2, D 2, N 2.29, L 1.92, H 2.5, G 3.51, I 1.97, T 1.64, A 1.96, F 1.65, M 1.76, C 1.91, V 2.07, K 2.19, P 2.45, S 2.24, W 1.69, Y 1.92, R 1.92
D22: M 1.72, E 1.98, H 2.54, S 2.29, G 2.34, K 1.52, Q 2, W 2.02, L 2.01, N 2.25, Y 2.16, P 2.44, A 1.94, C 2.08, I 1.64, T 2.29, V 2.65
F20: L 2.96, W 1.9, A 2.2, Q 2.42, T 2.5, S 2.96, N 2.56, D 2.54, G 2.59, H 1.91, E 2.52, V 2.85, M 2.49, Y 2.6, R 2.32, P 2.75, I 2.27, K 2.46, C 2.95

Variants of: B2
Test: as above
Settings: c terminus: a fixed tail appended

Protein stability index of substitutions, site by site:
T3: L 3.76, M 3.52, I 3.86, P 4.04, V 3.43, C 3.02, G 3.72, R 3.55, H 3.42, K 4.28, W 2.06, Y 3.22, D 4.4, S 3.97, E 5.23, A 4.32, F 3.95, Q 3.83, N 3.52
Q2: L 3.76, W 4.01, S 4.85, F 4.36, Y 3.78, M 4.3, R 4.18, V 2.23, N 3.89, P 4.69, T 3.92, G 4.85, H 2.27, C 3.29, K 3.59, A 3.67, D 4.48, E 5.13, I 2.93
E6: D 3.63, H 3.02, V 3.11, A 3.42, S 4.01, R 3.72, P 2.78, M 3.36, L 3.03, N 3.87, Q 3.44, I 2.5, T 3.88, F 2.27, G 3.48, K 3.53, C 3.33
T8: F 2.19, I 3.8, K 3.86, G 4.33, D 4.16, Y 2.69, S 3.72, E 4.57, P 3.94, C 3.11, W 1.34, A 3.85, R 4.26, N 3.92, H 4.38, V 3.76, L 3.79, M 3.47, Q 4.28
E13: C 3.74, I 3.21, F 3.1, G 3.6, A 3.62, K 3.61, L 3.1, D 3.82, H 3.08
M7: E 4.57, L 3.77, T 4.61, H 4.28, R 4.26, N 3.71, P 3.71, S 4.27, I 3.41, V 3.4, W 2.68, K 4.02, Q 4.14, A 4.26, C 3.6, F 3, D 4.64, G 3.93, Y 3.31
R4: V 3.77, H 3.66, L 4.4, T 4.46, W 2.48, Y 3.88, K 4.08, Q 4.14, M 3.94, P 4.62, G 4.34, N 4.35, F 3.37, S 4.39, E 4.95, I 4.09, A 4.09, C 4.63, D 4.99
A12: Y 3.39, G 4.44, Q 4.29, V 3.47, I 3.3, D 4.26, F 3.3, N 3.3, C 3.71, W 2.04, L 3.92, T 3.94, S 4.24, K 3.92, H 4.12, R 3.73, P 4.28, E 4.44, M 3.72
Q5: S 3.97, E 4.31, A 3.83, N 4.25, T 3.65, L 3.77, W 1.66, R 3.7, K 4.08, H 3.54, D 4.71, I 3.11, F 2.04, M 3.32, V 3.97, G 4.85, C 2.82, Y 1.79, P 3.99
S11: T 3.73, W 1.96, K 3.67, D 4.54, E 3.98, Y 2.93, I 3.09, C 3.63, H 4.43, P 3.73, A 3.88, F 4.22, L 3.85, N 3.92, Q 4.16, G 3.97, V 3.74, M 3.68, R 3.83
M10: Q 4.21, F 4.1, R 4.16, C 2.53, S 4.1, V 3.94, T 4.28, W 3.07, I 3.69, P 4.55, L 4.27, D 3.98, Y 3.97, N 4.14, A 3.84, H 4.12, K 4.07, E 3.51, G 4.34
S9: L 4.12, W 2.32, Q 3.73, P 4.01, N 4.28, C 3.41, Y 3.28, I 3.58, V 3.51, K 4.32, F 3.02, T 3.96, A 4.43, E 4.49, H 3.84, R 3.78, D 4.05, G 4.11, M 4.17
F1: S 5.1, D 5.24, H 4.85, G 4.46, V 4.92, T 5.21, Q 5.21, W 4.66, E 4.91, P 4.5, N 5.13, M 4.52, Y 4.02, L 5.21, C 4.85, K 5.1, I 4.27, A 4.88, R 4.42
